Data from US20100279409A1, “METHOD FOR MODIFYING CELLUAR IMMUNE RESONSE BY MODULATING ACTIVIN ACTIVITY” (priority 2007, published 2010).

Key:
[1] = test system: Human MoDCs; test: Activin-A secretion by stimulated MoDCs; type: cell-based; conditions: MoDCs in GM-CSF and IL-4, 2-72 hours
Protocol: Human MoDCs were co-cultured, in a medium containing both GM-CSF and IL-4, with one of (i) intact E. coli, (ii) CD40L, (iii) a TLR ligand (LPS, R848, Poly I:C, or Pam3Cys, which bind, respectively, to TLR4, 7/8, 3, and 2/6), or (iv) one of the inflammatory mediators PGE2 or ATP. Culture was carried out for from 2-72 hours. Supernatants were collected, and assayed for activin-A, using standard methods.

[2] = test system: Human NK cells; test: IFN-γ ELISA of purified NK cells; type: cell-based; conditions: for IFN-γ production: NK cells
Protocol: A total of 1×10^5 highly purified human NK cells were cultured for 20 hours in medium supplemented with 20 U/ml IL-2, and 10 ng/ml IL-12. Either human recombinant activin-A, or TGF-β was added to the cultures, at concentrations of 10, 50 and 100 ng/ml. Supernatants were then tested for IFN-γ via ELISA, using standard methods. In these experiments 1×10^5 highly purified human NK cells were cultured as above, but were cultured with Poly I:C (10 μg/ml), or LPS (100 ng/ml), with or without 10, 50, or 100 ng/ml of recombinant human activin-A. In some cases, the known compound “SB431542,” which blocks activin-A binding to receptors was added. IFN-γ was then measured via ELISA, or by intracellular cytokine staining after 16 hours of culture, via addition of 1 μg/ml BFA, to prevent cytokine release. The impact of activin-A on production of IFN-γ by NK cells, in the absence of dendritic cells, was ascertained. Purified NK cells (1×10^5) were cultured in 96 well-plants, in media that was supplemented with 20 U/ml IL-2 and 10 ng/ml, IL-12, in the absence of, or with increasing concentrations of either activin-A, or TGF-β. Culture supernatants were assayed for IFN-γ after 24 hours of culture, using ELISAs, as described supra. As in the prior experiments, 1×10^5 purified NK cells were cultured in media supplemented with IL-2 only, or IL-2 plus IL-12, either with or without one of poly I:C or LPS, in the presence or absence of increased levels of activin-A.

[3] = test system: MoDCs; test: qRT-PCR kinetics of activin receptor mRNA in stimulated MoDCs; type: cell-based, human
Protocol: In follow up experiments, the kinetics of gene expression described in Example 1 were studied, by stimulating MoDCs with either of trimeric CD40L or LPS, via quantitative real time PCR, or “qRT-PCR,” using standard methods and primers specific for activin βA and the activin receptor molecules ALK-2, and ALK-4. The primers differed from those used in the RT-PCR work, described supra. Stimulus was accomplished with 2 μg/ml of CD40L trimer, or 100 ng/ml of E. coli derived LPS for anywhere from 2-24 hours. As a control, MoDCs were cultured in GM-CSF plus IL-4 for the same length of time.

[4] = test system: NK cells; test: NK cell viability by caspase and PI staining; type: cell-based, human; conditions: 24 hours
Protocol: With respect to testing viability, 1×10^5 purified NK cells were cultured as described supra, in 96 well-plates. After 24 hours of culture, cells were stained with antibodies to polycaspase, caspase 3/7, caspase 8 and PI.

[5] = test system: NK cells; test: NKp30 expression on NK cells by flow cytometry; type: cell-based, human; conditions: NK cells after 3 day culture, 100 ng/ml
Protocol: In order to investigate the mechanism behind these differences, the same NK cells were purified and cryopreserved immediately after the 3 day culture period. The cells were thawed, washed, and stained for NCR. NKp30, with expression levels determined via flow cytometry. The level of expression was also determined using “ex vivo” samples, and NK cells that were cultured, without exposure to targets.

[6] = test system: NK cells (target cells K562 or Jurkat cells); test: NK cell killing of calcein-labeled target cells; type: cell-based, human; conditions: 100 ng/ml, 3 days culture, K562 or Jurkat targets, 4 hours
Protocol: 1×10^6 purified NK cells were cultured in 24 well-plates, either with a high dose of IL-2 (100 U/ml), or a combination of 20 U/ml of IL-2 and IL-12. The culturing took place in the absence of either of activin-A or TGF-β or 100 ng/ml of one of them. The culture continued for 3 days.
After the 3 days of culture, the NK cells were combined with target cells K562 or Jurkat cells, at effector (NK cells): target (K562 or Jurkat cells) ratios of 5:1, 2:1, and 0.1:1. The target cells had been labeled with calcein previously. The total number of labeled target cells was 2×10^4, and the mixture was incubated for 4 hours. The efficiency of killing was determined by measuring calcein dye release via spectrometry.

[7] = test system: MoDCs; test: qRT-PCR of IL-6 mRNA in MoDCs with follistatin; type: cell-based, human; conditions: follistatin 400 ng/ml
Protocol: When qRT-PCR was carried out, a 15 fold increase in IL-6 mRNA expression was observed 2 hours after MoDC stimulation and the 400 ng/ml dose of follistatin, with a peak at 4 hours, (30 fold), with a decrease over 6-24 hours.

[8] = test system: MoDCs; test: IL-6 and cytokine ELISA of stimulated MoDCs with follistatin; type: cell-based, human; conditions: for IL-6 production: follistatin 0, 20, 100 ng/ml
Protocol: Prior studies had shown that, in an in vivo LPS challenge model, activin-A is released into the circulatory system rapidly, and can be detected prior to IL-6, and just prior to TNF-α release. […] This was tested by combining MoDCs with trimeric CD40L, or LPS, at a fixed concentration, together with varying concentrations of follistatin (0, 20, and 100 ng/ml) MoDCs were combined with GM-CSF and IL-4 as a control. Supernatants were collected after 4 hours, 24 hours, and 48 hours of culture, and then assayed for IL-6 via a standard ELISA.
Further experiments were then carried out, using trimeric CD40L or concentrations of LPS and follistatin that were even higher (1 ng/ml-150 ng/ml for LPS, and 400 ng/ml for follistatin).

[9] = test system: immature MoDCs; test: Activin-A ELISA of CD40L-stimulated MoDCs with follistatin; type: cell-based, human; conditions: CD40L 2 μg/ml
Protocol: The early autocrine/paracrine release of activin-A by MoDCs was viewed as a possible potentiating feedback loop to further activin-A production. To test this, immature MoDCs were cultured with 2 μg/ml of CD40L, together with increasing concentrations of follistatin (0-400 ng/ml). Supernatants were collected over a 6 hour period and activin-A was qualified in a standard ELISA.

[10] = test system: MoDCs; test: IL-10 secretion and mRNA in MoDCs with follistatin; type: cell-based, human
Source text: Supernatants were screened, via standard ELISAs, for a large array of cytokines and chemokines, including pleiotropic IL-10.

[11] = test system: MoDCs; test: IL-12p35 expression, IL-12p70 and TNF-α secretion by CD40L-stimulated MoDCs; type: cell-based, human
Protocol: In view of this, the experiments were extended to investigate the impact, if any on IL-12p70, a potent TH1 cytokine, and pro-inflammatory TNF-α. The experiments were carried out in the same way as the prior experiments were.

[12] = test system: CD8+ T cells co-cultured with MoDCs; type: cell-based, human; conditions: follistatin 400 ng/ml, nine days, IFN-γ secretion and CD107a expression
[13] = test system: MoDCs co-cultured with NK cells; test: IFN-γ production in MoDC and NK cell co-culture with follistatin; type: cell-based, human
Protocol: The dendritic cells were obtained by culturing CD14^+ monocytes with GM-CSF and IL-4, for 6-7 days, which are standard culture conditions. A sample of 5×10^4 MoDCs were co-cultured with 1×10^5 NK cells, either with or without 400 ng/ml follistatin. As controls, samples of each type of cell were cultured individually.
IFN-γ production was measured, as described supra.
To test this, 5×10^4 immature MoDCs were cultured, in 96 well-plates, in standard media supplemented with 20 U/ml IL-2 and 20 ng/ml GM-CSF only, or with the addition of 1×10^5 autologous NK cells. In addition, the cells were stimulated with IL-12 and poly I:C. In addition, 400 ng/ml of follistatin was added to cultures in order to neutralize activin-A.
After 24 hours, supernatants were collected, and assayed for IFNγ via a standard ELISA.

[14] = test system: MoDC; test: Chemokine secretion by CD40L-stimulated MoDCs with follistatin; type: cell-based, human; conditions: 24 hours, increasing follistatin
Protocol: MoDC culture supernatants were screened following 24 hours of culture, using controls, and increasing concentration of follistatin, as described supra. Assays were carried out, following standard methods, for IL-12p70, TNF-α, IL-8, IP-10, RANTES, and MCP-1.

[15] = CD40L-stimulated MoDCs with follistatin

Nc1ncnc2c1ncn2[C@@H]1O[C@H](COP(=O)(O)OP(=O)(O)OP(=O)(O)O)[C@@H](O)[C@H]1O [ATP]
activin-A secretion [1]: neither of these stimulated activin-A release above the levels observed in unstimulated MoDC cultures

CCCCC[C@H](O)/C=C/[C@H]1[C@H](O)CC(=O)[C@@H]1C/C=C\CCCC(=O)O [PGE2]
activin-A secretion [1]: neither of these stimulated activin-A release above the levels observed in unstimulated MoDC cultures

CCOCc1nc2c(N)nc3ccccc3c2n1CC(C)(C)O [R848]
activin-A secretion [1]: significant amounts of activin-A after 6 hours of stimulation

NC(=O)c1ccc(-c2nc(-c3ccc4c(c3)OCO4)c(-c3ccccn3)[nH]2)cc1 [SB431542, reference compound]
activin-A suppression of IFN-γ production ([2]; added at a concentration of 10 for 30 minutes before activin-A): reversed

CD40L: trimeric CD40L used to stimulate MoDCs
activin RIIA mRNA ([3]; after 2 hours): upregulated
ALK-4 mRNA ([3]; after 24 hours of stimulation, vs controls): significantly higher than controls
ALK-4 mRNA ([3]; early in the culture period): downregulated
activin RIIB mRNA ([3]; over 2-24 hours): early down regulation, followed by increases over time

Pam3Cys
activin-A secretion [1]: did not

Poly I:C [reference compound]
activin-A secretion [1]: significant amounts of activin-A after 6 hours of stimulation
IFN-γ production induced by stimulus ([2]; added to stimulated NK cultures): enhanced IFN-γ production

TGF-β
apoptosis (polycaspase, caspase 3/7, caspase 8, PI staining) [4]: no indication of apoptosis
NKp30 expression [5]: substantial down regulation of the receptor
IFN-γ production ([2]; IL-2 and IL-12, 20 hours, 10, 50, 100 ng/ml): suppressing the production of IFN-γ
IFN-γ production ([2]; IL-2 and IL-12, 24 hours, increasing concentrations): inhibiting IFN-γ production
killing ability of NK cells [6]: significantly suppressed

B1: follistatin (protein, UniProt P19883 30-344, looked up)
Follistatin: GNCWLRQAKNGRCQVLYKTELSKEECCSTGRLSTSWTEEDVNDNTLFKWMIFNGGAPNCIPCKETCENVDCGPGKKCRMNKKNKPRCVCAPDCSNITWKGPVCGLDGKTYRNECALLKARCKEQPELEVQYQGRCKKTCRDVFCPGSSTCVVDQTNNAYCVTCNRICPEPASSEQYLCGNDGVTYSSACHLRKATCLLGRSIGLAYEGKCIKAKSCEDIQCTGGKKCLWDFKVGRGRCSLCDELCPDSKSDEPVCASDNATYASECAMKEAACSSGVLLEVKHSGSCNSISEDTEEEEEDEDQDYSFPISSILEW
increase in IL-6 mRNA expression ([7]; 2 hours after MoDC stimulation): 15 fold
increase in IL-6 mRNA expression ([7]; peak at 4 hours): 30 fold
IL-6 production ([8]; CD40L-stimulated MoDCs): as follistatin concentration increased, so too did IL-6 production
LPS mediated IL-6 production ([8]; LPS 1 ng/ml-150 ng/ml, follistatin 400 ng/ml): not LPS mediated IL-6 production, at any dose
IL-6 production ([8]; LPS-stimulated MoDCs): did not influence its production
CD40L mediated production of IL-6 ([8]; follistatin 400 ng/ml): dramatically enhanced
MoDC cytokine production ([8]; follistatin alone, no other stimulus): did not induce MoDC cytokine production
activin-A production ([9]; follistatin 0-400 ng/ml, first 2-4 hours): dose dependent decreases in activin-A production
activin-A production ([9]; follistatin 400 ng/ml, at 6 hours): unable to abrogate the level of activin-A production
IL-10 mRNA expression ([10]; CD40L-stimulated MoDCs with follistatin, peak at 4 hours): increased IL-10 mRNA expression
CD40L mediated IL-10 secretion ([10]; MoDCs with follistatin): enhanced IL-10 secretion by the MoDCs in a dose dependent manner
E. coli mediated IL-10 secretion ([10]; MoDCs with follistatin): did not impact
IL-12p70 protein secretion [11, 15]: dose dependent enhancement
TNF-α secretion [11, 15]: dose dependent enhancement peaking at 24 hours
IL-12p35 expression vs CD40L alone ([11]; at 24 hours, CD40L plus follistatin): at least 15 fold
IL-12p70 secretion ([11]; follistatin alone, without any other stimulus): did not induce IL-12p70 secretion
percentage of influenza matrix specific CD8+ T cells displaying effector function [12]: significantly increased
total number of influenza matrix specific CD8+ T cells displaying effector function [12]: significantly increased
IFN-γ production ([13]; MoDCs co-cultured with NK cells, follistatin 400 ng/ml): increased markedly
IFN-γ production ([13]; NK cells alone stimulated with cytokines): had no impact
IFN-γ production ([13]; immature MoDCs and autologous NK cells, IL-12 and poly I:C, follistatin 400 ng/ml, 24 hours): significant increases in IFN-γ production
IL-8 production [14]: substantially enhanced
MCP-1 production [14]: substantially enhanced
RANTES production [14]: substantially enhanced
